Settings: Bos taurus; pH 4.2; Thermal; CD; Sodium acetate 0.01 M; NaCl 0.1 M; reversible: yes; whole UniProt chain shown

B1: Ribonuclease pancreatic wild type, P61823 (protein)
chain: MALKSLVLLSLLVLVLLLVRVQPSLGKETAAAKFERQHMDSSTSAASSSNYCNQMMKSRNLTKDRCKPVNTFVHESLADVQAVCSQKNVACKNGQTNCYQSYSTMSITDCRETGSSKYPNCAYKTTQANKHIIVACEGNPYVPVHFDASV
Work on B1 yielded a Tm of 56 °C.
